From patent US20140213513A1 (Sanofi, priority 2012, published 2014)
*1 amine or outer side, *2 acyl side, *3 side chain or, on linkers, in order; H or OH if unused. Where no end group is shown, it is not given here. Side-chain parts run from the residue outwards. [ ]: non-standard residue; d: D form. The star is where a group is joined. γGlu = O=C(O)[C@H](CCC(=O)[*:2])N[*:1]; Stearoyl = CCCCCCCCCCCCCCCCCC(=O)*; Palmitoyl = CCCCCCCCCCCCCCCC(=O)*; Aib = CC(C)(N)C(=O)O

T1: human GIP receptor (human, UniProt P48546 22-466)
T1 sequence (looked up): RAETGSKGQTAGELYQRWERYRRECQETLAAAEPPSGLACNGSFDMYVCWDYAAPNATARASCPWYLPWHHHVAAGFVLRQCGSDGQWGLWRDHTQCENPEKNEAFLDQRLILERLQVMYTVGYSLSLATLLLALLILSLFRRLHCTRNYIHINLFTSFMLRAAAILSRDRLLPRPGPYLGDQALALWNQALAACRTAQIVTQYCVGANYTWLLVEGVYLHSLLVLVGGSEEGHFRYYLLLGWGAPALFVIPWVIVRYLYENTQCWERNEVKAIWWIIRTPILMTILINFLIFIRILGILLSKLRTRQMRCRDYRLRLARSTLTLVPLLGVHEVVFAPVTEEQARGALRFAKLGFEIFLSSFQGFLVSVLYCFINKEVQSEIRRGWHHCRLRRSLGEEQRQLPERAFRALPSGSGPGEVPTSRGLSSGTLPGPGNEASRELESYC


Columns and labels:
Assay in all cases: cell-based or functional assay
human GLP-1 receptor = human GLP-1 receptor (human, UniProt P43220 24-463)
human GIP receptor = target: T1, human GIP receptor
human glucagon receptor = human glucagon receptor (human, UniProt P47871 26-477)
Sequence of human glucagon receptor (P47871 26-477): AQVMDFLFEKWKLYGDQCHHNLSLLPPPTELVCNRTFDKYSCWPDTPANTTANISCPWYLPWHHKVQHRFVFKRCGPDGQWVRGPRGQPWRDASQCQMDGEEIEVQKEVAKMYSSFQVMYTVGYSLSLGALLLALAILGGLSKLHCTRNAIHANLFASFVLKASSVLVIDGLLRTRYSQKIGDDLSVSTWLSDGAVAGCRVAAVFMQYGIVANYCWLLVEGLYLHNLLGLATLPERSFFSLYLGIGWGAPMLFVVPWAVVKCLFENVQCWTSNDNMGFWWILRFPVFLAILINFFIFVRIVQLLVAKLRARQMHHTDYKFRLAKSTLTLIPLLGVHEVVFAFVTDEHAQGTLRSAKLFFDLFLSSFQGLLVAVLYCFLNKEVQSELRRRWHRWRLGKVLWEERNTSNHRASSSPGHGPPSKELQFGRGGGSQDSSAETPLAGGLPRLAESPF

Binder | EC50 hGLP-1 R (human GLP-1 receptor) [pM] | EC50 hGIP R (human GIP receptor) [pM] | EC50 hGLUC R (human glucagon receptor) [pM]
Y[Aib]QGTFTSDLSIQK(Palmitoyl)EQRAA[Aib]EFIEWLKNTGPSSGAPPPS-NH2 (N-terminus assumed; SMILES CCCCCCCCCCCCCCCC(=O)NCCCC[C@H](NC(=O)[C@H](CCC(N)=O)NC(=O)[C@@H](NC(=O)[C@H](CO)NC(=O)[C@H](CC(C)C)NC(=O)[C@H](CC(=O)O)NC(=O)[C@H](CO)NC(=O)[C@@H](NC(=O)[C@H](Cc1ccccc1)NC(=O)[C@@H](NC(=O)CNC(=O)[C@H](CCC(N)=O)NC(=O)C(C)(C)NC(=O)[C@@H](N)Cc1ccc(O)cc1)[C@@H](C)O)[C@@H](C)O)[C@@H](C)CC)C(=O)N[C@@H](CCC(=O)O)C(=O)N[C@@H](CCC(N)=O)C(=O)N[C@@H](CCCNC(=N)N)C(=O)N[C@@H](C)C(=O)N[C@@H](C)C(=O)NC(C)(C)C(=O)N[C@@H](CCC(=O)O)C(=O)N[C@@H](Cc1ccccc1)C(=O)N[C@H](C(=O)N[C@@H](CCC(=O)O)C(=O)N[C@@H](Cc1c[nH]c2ccccc12)C(=O)N[C@@H](CC(C)C)C(=O)N[C@@H](CCCCN)C(=O)N[C@@H](CC(N)=O)C(=O)N[C@H](C(=O)NCC(=O)N1CCC[C@H]1C(=O)N[C@@H](CO)C(=O)N[C@@H](CO)C(=O)NCC(=O)N[C@@H](C)C(=O)N1CCC[C@H]1C(=O)N1CCC[C@H]1C(=O)N1CCC[C@H]1C(=O)N[C@@H](CO)C(N)=O)[C@@H](C)O)[C@@H](C)CC) [exendin-4 peptide analogue SEQ ID NO: 21] | 37 | 189 | 674
Y[Aib]QGTFTSDLSIQK([γGlu-Palmitoyl])EKRA[Aib][Aib]EFIEWLKNTGPSSGAPPPS-NH2 (N-terminus assumed; SMILES CCCCCCCCCCCCCCCC(=O)N[C@@H](CCC(=O)NCCCC[C@H](NC(=O)[C@H](CCC(N)=O)NC(=O)[C@@H](NC(=O)[C@H](CO)NC(=O)[C@H](CC(C)C)NC(=O)[C@H](CC(=O)O)NC(=O)[C@H](CO)NC(=O)[C@@H](NC(=O)[C@H](Cc1ccccc1)NC(=O)[C@@H](NC(=O)CNC(=O)[C@H](CCC(N)=O)NC(=O)C(C)(C)NC(=O)[C@@H](N)Cc1ccc(O)cc1)[C@@H](C)O)[C@@H](C)O)[C@@H](C)CC)C(=O)N[C@@H](CCC(=O)O)C(=O)N[C@@H](CCCCN)C(=O)N[C@@H](CCCNC(=N)N)C(=O)N[C@@H](C)C(=O)NC(C)(C)C(=O)NC(C)(C)C(=O)N[C@@H](CCC(=O)O)C(=O)N[C@@H](Cc1ccccc1)C(=O)N[C@H](C(=O)N[C@@H](CCC(=O)O)C(=O)N[C@@H](Cc1c[nH]c2ccccc12)C(=O)N[C@@H](CC(C)C)C(=O)N[C@@H](CCCCN)C(=O)N[C@@H](CC(N)=O)C(=O)N[C@H](C(=O)NCC(=O)N1CCC[C@H]1C(=O)N[C@@H](CO)C(=O)N[C@@H](CO)C(=O)NCC(=O)N[C@@H](C)C(=O)N1CCC[C@H]1C(=O)N1CCC[C@H]1C(=O)N1CCC[C@H]1C(=O)N[C@@H](CO)C(N)=O)[C@@H](C)O)[C@@H](C)CC)C(=O)O) [exendin-4 peptide analogue SEQ ID NO: 22] | 8.5 | 102 | 2220
Y[Aib]QGTFTSDLSIQK([γGlu-Palmitoyl])EKRLA[Aib]EFIEWLKNTGPSSGAPPPS-NH2 (N-terminus assumed; SMILES CCCCCCCCCCCCCCCC(=O)N[C@@H](CCC(=O)NCCCC[C@H](NC(=O)[C@H](CCC(N)=O)NC(=O)[C@@H](NC(=O)[C@H](CO)NC(=O)[C@H](CC(C)C)NC(=O)[C@H](CC(=O)O)NC(=O)[C@H](CO)NC(=O)[C@@H](NC(=O)[C@H](Cc1ccccc1)NC(=O)[C@@H](NC(=O)CNC(=O)[C@H](CCC(N)=O)NC(=O)C(C)(C)NC(=O)[C@@H](N)Cc1ccc(O)cc1)[C@@H](C)O)[C@@H](C)O)[C@@H](C)CC)C(=O)N[C@@H](CCC(=O)O)C(=O)N[C@@H](CCCCN)C(=O)N[C@@H](CCCNC(=N)N)C(=O)N[C@@H](CC(C)C)C(=O)N[C@@H](C)C(=O)NC(C)(C)C(=O)N[C@@H](CCC(=O)O)C(=O)N[C@@H](Cc1ccccc1)C(=O)N[C@H](C(=O)N[C@@H](CCC(=O)O)C(=O)N[C@@H](Cc1c[nH]c2ccccc12)C(=O)N[C@@H](CC(C)C)C(=O)N[C@@H](CCCCN)C(=O)N[C@@H](CC(N)=O)C(=O)N[C@H](C(=O)NCC(=O)N1CCC[C@H]1C(=O)N[C@@H](CO)C(=O)N[C@@H](CO)C(=O)NCC(=O)N[C@@H](C)C(=O)N1CCC[C@H]1C(=O)N1CCC[C@H]1C(=O)N1CCC[C@H]1C(=O)N[C@@H](CO)C(N)=O)[C@@H](C)O)[C@@H](C)CC)C(=O)O) [exendin-4 peptide analogue SEQ ID NO: 19] | 8.5 | 91.5 | 137
Y[Aib]QGTFTSDLSIQK([γGlu-Palmitoyl])EKRAA[Aib]YFIEWLKNTGPSSGAPPPS-NH2 (N-terminus assumed; SMILES CCCCCCCCCCCCCCCC(=O)N[C@@H](CCC(=O)NCCCC[C@H](NC(=O)[C@H](CCC(N)=O)NC(=O)[C@@H](NC(=O)[C@H](CO)NC(=O)[C@H](CC(C)C)NC(=O)[C@H](CC(=O)O)NC(=O)[C@H](CO)NC(=O)[C@@H](NC(=O)[C@H](Cc1ccccc1)NC(=O)[C@@H](NC(=O)CNC(=O)[C@H](CCC(N)=O)NC(=O)C(C)(C)NC(=O)[C@@H](N)Cc1ccc(O)cc1)[C@@H](C)O)[C@@H](C)O)[C@@H](C)CC)C(=O)N[C@@H](CCC(=O)O)C(=O)N[C@@H](CCCCN)C(=O)N[C@@H](CCCNC(=N)N)C(=O)N[C@@H](C)C(=O)N[C@@H](C)C(=O)NC(C)(C)C(=O)N[C@@H](Cc1ccc(O)cc1)C(=O)N[C@@H](Cc1ccccc1)C(=O)N[C@H](C(=O)N[C@@H](CCC(=O)O)C(=O)N[C@@H](Cc1c[nH]c2ccccc12)C(=O)N[C@@H](CC(C)C)C(=O)N[C@@H](CCCCN)C(=O)N[C@@H](CC(N)=O)C(=O)N[C@H](C(=O)NCC(=O)N1CCC[C@H]1C(=O)N[C@@H](CO)C(=O)N[C@@H](CO)C(=O)NCC(=O)N[C@@H](C)C(=O)N1CCC[C@H]1C(=O)N1CCC[C@H]1C(=O)N1CCC[C@H]1C(=O)N[C@@H](CO)C(N)=O)[C@@H](C)O)[C@@H](C)CC)C(=O)O) [exendin-4 peptide analogue SEQ ID NO: 23] | 9.2 | 134 | 312
Y[Aib]HGTFTSDLSIQK([γGlu-Stearoyl])EKRAA[Aib]EFIEWLKNTGPSSGAPPPS-NH2 (N-terminus assumed; SMILES CCCCCCCCCCCCCCCCCC(=O)N[C@@H](CCC(=O)NCCCC[C@H](NC(=O)[C@H](CCC(N)=O)NC(=O)[C@@H](NC(=O)[C@H](CO)NC(=O)[C@H](CC(C)C)NC(=O)[C@H](CC(=O)O)NC(=O)[C@H](CO)NC(=O)[C@@H](NC(=O)[C@H](Cc1ccccc1)NC(=O)[C@@H](NC(=O)CNC(=O)[C@H](Cc1c[nH]cn1)NC(=O)C(C)(C)NC(=O)[C@@H](N)Cc1ccc(O)cc1)[C@@H](C)O)[C@@H](C)O)[C@@H](C)CC)C(=O)N[C@@H](CCC(=O)O)C(=O)N[C@@H](CCCCN)C(=O)N[C@@H](CCCNC(=N)N)C(=O)N[C@@H](C)C(=O)N[C@@H](C)C(=O)NC(C)(C)C(=O)N[C@@H](CCC(=O)O)C(=O)N[C@@H](Cc1ccccc1)C(=O)N[C@H](C(=O)N[C@@H](CCC(=O)O)C(=O)N[C@@H](Cc1c[nH]c2ccccc12)C(=O)N[C@@H](CC(C)C)C(=O)N[C@@H](CCCCN)C(=O)N[C@@H](CC(N)=O)C(=O)N[C@H](C(=O)NCC(=O)N1CCC[C@H]1C(=O)N[C@@H](CO)C(=O)N[C@@H](CO)C(=O)NCC(=O)N[C@@H](C)C(=O)N1CCC[C@H]1C(=O)N1CCC[C@H]1C(=O)N1CCC[C@H]1C(=O)N[C@@H](CO)C(N)=O)[C@@H](C)O)[C@@H](C)CC)C(=O)O) [exendin-4 peptide analogue SEQ ID NO: 18] | 18.3 | 9.5 | 9.5
Y[Aib]EGTFTSDLSIQK([γGlu-Palmitoyl])EKRAA[Aib]EFIEWLKRAGPSSGAPPPS-NH2 (N-terminus assumed; SMILES CCCCCCCCCCCCCCCC(=O)N[C@@H](CCC(=O)NCCCC[C@H](NC(=O)[C@H](CCC(N)=O)NC(=O)[C@@H](NC(=O)[C@H](CO)NC(=O)[C@H](CC(C)C)NC(=O)[C@H](CC(=O)O)NC(=O)[C@H](CO)NC(=O)[C@@H](NC(=O)[C@H](Cc1ccccc1)NC(=O)[C@@H](NC(=O)CNC(=O)[C@H](CCC(=O)O)NC(=O)C(C)(C)NC(=O)[C@@H](N)Cc1ccc(O)cc1)[C@@H](C)O)[C@@H](C)O)[C@@H](C)CC)C(=O)N[C@@H](CCC(=O)O)C(=O)N[C@@H](CCCCN)C(=O)N[C@@H](CCCNC(=N)N)C(=O)N[C@@H](C)C(=O)N[C@@H](C)C(=O)NC(C)(C)C(=O)N[C@@H](CCC(=O)O)C(=O)N[C@@H](Cc1ccccc1)C(=O)N[C@H](C(=O)N[C@@H](CCC(=O)O)C(=O)N[C@@H](Cc1c[nH]c2ccccc12)C(=O)N[C@@H](CC(C)C)C(=O)N[C@@H](CCCCN)C(=O)N[C@@H](CCCNC(=N)N)C(=O)N[C@@H](C)C(=O)NCC(=O)N1CCC[C@H]1C(=O)N[C@@H](CO)C(=O)N[C@@H](CO)C(=O)NCC(=O)N[C@@H](C)C(=O)N1CCC[C@H]1C(=O)N1CCC[C@H]1C(=O)N1CCC[C@H]1C(=O)N[C@@H](CO)C(N)=O)[C@@H](C)CC)C(=O)O) [exendin-4 peptide analogue SEQ ID NO: 20] | 8.2 | 16.3 | 18200
